Molecular target: the molecule itself
Assay: solution NMR spectroscopy, monomer-dimer equilibrium (homodimerisation)

B1: WT MIP-2 (chemokine CXCL2, also known as MIP-2 in mice) (ligand, mouse, UniProt P10889 28-100, looked up)
chain: AVVASELRCQCLKTLPRVDFKNIQSLSVTPPGPHCAQTEVIATLKGGQKVCLDPEAPLVQKIIQKILNKGKAN
notes: also called native MIP-2; wild-type (WT) chemokine
**Q.** B1 was tested. Which Kd did it give?
**A.** Its Kd is 10 µM.
